Experimental data reported in the DeepSol protein solubility set.

Assay: soluble on expression in E. coli; label from the status in PepcDB or PDB records

For “MSNSYEGCGDLTIFVAVALNKVIGHKNQIPWPHITHDFRFLRNGTTYIPPEVLSKNPDIQNVVIFGRKTYESIPKASLPLKNRINVILSRTVKEVPGCLVYEDLSTAIRDLRANVPHNKIFILGGSFLYKEVLDNGLCDKIYLTRLNKEYPGDTYFPDIPDTFEITAISPTFSTDFVSYDFVIYERKDCKTVFPDPPFDQLLMTGTDISVPKPKYVACPGVRIRNHEEFQYLDILADVLSHGVLKPNRTGTDAYSKFGYQMRFDLSRSFPLLTTKKVALRSIIEELLWFIKGSTNGNDLLAKNVRIWELNGRRDFLDKNGFTDREEHDLGPIYGFQWRHFGAEYLDMHADYTGKGIDQLAEIINRIKTNPNDRRLIVCSWNVSDLKKMALPPCHCFFQFYVSDNKLSCMMHQRSCDLGLGVPFNIASYSILTAMVAQVCGLGLGEFVHNLADAHIYVDHVDAVTTQIARIPHPFPRLRLNPDIRNIEDFTIDDIVVEDYVSHPPIPMAMSA”, the “soluble on expression in E. coli” value was “soluble”.
In the case of “MQLKTEVFLVEKEILVYIQTKSIGIEDNSIKLKMTPLLKKFANIGDKVYLKHSTFMLPTKIKAKKEDEVLLEFPSLTPEKPLGDRRNVRVLSDPENPVKVRFNEITKEVYDISEVGFSIKCGMEEIDEILKNKEISEVEIYLPNLEEWIKGSARLVNVREFENGDILCGYELFLDTPDEVKVRFYIYERVKEILKGEK”, the “soluble on expression in E. coli” value was “not soluble”.
With “MPPLPLIGMLLGTASTMIKSSSGAAAHASGASSAPSGDAAPTAPFAQTLKRNVQTQRQTNAGAGAGAPNAGNATNAATSGTANASTTSSASEPATTNAGNTKASGKPDDQDDDKNATQSASADAAAALAAAASLQAQLQARPDAQAAQAAAPQAGASDAAHPPTTLATNTAAAGDADTSALAGAQQPVGEALNAALSKLTGAGPAGAAATQRAQPAGRNDGAPTPLAANGPFDKMLAGAKAPAAPATLTDASGTNPAVSTAAQPAASGAIAALQDAADSARATLAASSAPAALQQAAPAALAANANAAAATAAPSLAPPVGTPDWTEALSQKVVFLSNAHQQSAELTLNPPDLGPLQVVLRVAENHAHALFVSQHAQVRDAVEAALPKLREAMEAGGLGLGSASVSDGGFASAQQQQTPQRQSSDGSAARRASGAPTADAALGEVSAVSSGGVTRRSVGMVDTFA” the “soluble on expression in E. coli” value was “not soluble”.
With “SETQKTQAENPPKPATSSCRKKTKDDANFLEDVKDHIDDFINASMDDHKNCFNKTIKKMFGLSKAVADKQQSEAKGGVESYLPLQTTVSD” the “soluble on expression in E. coli” value was “soluble”.
For “GPLGSTRAKTQEEIKREEEQAIDEVLKIEFLELALGYQLISLADMKQGGDLLERIRGIRKKIASDYGFLMPQIRIRDNLQLPPTHYEIKLKGIVIGEGMVMPDKFLAMNTGFVNREIEGIPTKEPAFGMDALWIDAKNKEEAIIQGYTIIDPSTVIATHTSELVKKYAEDFITKDEVKSLLERLAKDYPTIVEESKKIPTGAIRSVLQALLHEKIPIKDMLTILETITDIAPLVQNDVNILTEQVRARLSRVITNAFKSEDGRLKFLTFSTDSEQFLLNKLRENGTSKSLLLNVGELQKLIEGVSEEAMKVLQKGIAPVILIVEPNLRKALSNQMEQARIDVVVLSHAELDPNSNFEALGTIHIN”, the “soluble on expression in E. coli” value was “soluble”.
For “MSLCRWAAYHGTPIFLEDVISRPGHSLIAQSAHAEECKTATNGDGFGVAWYDARPEPGLYRDVYPAWSDPNLRAVAHHVRSGLFLSHVRASTGSCISRNNCHPFAARRWCFMHNGQVGGFEAFRKQADMAIADEFYTYRKGSTDSEVLFLLALSEGLEHDPHGALARAIARLEGLSRAHGTTPHMRLSAAFSDGQTLYAARYSSDHIAPSVYYRYSHARQGWAVVSEPLETDEGDWTELRPGRMLTIGAEGAAERDFAPADLGRAAEGHHHHHH”, the “soluble on expression in E. coli” value was “soluble”.
With “MGHHHHHHSHMLYVRCGTVGSRMFLVYVSYLINTTIEEKEIVCKCHKDETVTIETVFPFDVAVKFVSTKFEHLERVYADIPFLLMTDLLSASPWALTIVSSELQLAPSMTTVDQLESQVDNVILQTGESASECFCLQCPSLGNIEGGVATGHYIISWKRTSAMENIPIITTVITLPHVIVESIPLHVNADLPSFGRVRESLPVKYHLQNKTDLVQDVEISVEPSDAFMFSGLKQIRLRILPGTEQEMLYNFYPLMAGYQQLPSLNINLLRFPNFTNQLLRRFIPTSIFVKPQGRLMDDTSIAAA” the “soluble on expression in E. coli” value was “not soluble”.
In the case of “MSILAEPKRKQKISIDPQNLTWKNDDQKLSKKLMEKMGWSEGDGLGRNRQGNADSVKLKANTSGRGLGADKMADYDSTWISHHDDFADLLAALNKNKEQEPEQTEEEKNAAAEKISIELKSKSIRRRIHYQKFTRAKDTSNYSDSHKKGILGYGRLKSDNAEEKIEEKTENSSVKSDSSDSQADSQEKKEGNNTVSTLSVGDYFAAKMAALKAKREAAAANQTEVKMEIKTEVEEEESDEEKARRKAEKKERKRLRREQRDKEETLETVETILEVKQEVKEEIIDEEFDEAERKRLKKEKKRLKRLREQQQPENEGAEGGEADEEEIPRKRKKHTEDEH”, the “soluble on expression in E. coli” value was “not soluble”.
With “MKIKLEHGAGGELMEELIRDVILKNLTLNSAGGIGLEALDDGATIPFEGKHLVFTIDGHTVRPLFFPGGDIGRLAVSGTVNDLAVMGAKPLALASSLIIGEGFDSDKLEEILKSMNRTAKEVPVPIITGDTKVVEDNIEIFVITAGIGIAEKPISDAGAKVGDLVLVNGTIGDHGIALMSHREGISFETELKSDVAPIWDVVKTVADAIGWENIHAMKDPTRGGLSNALNEMARKADVGILVRESDIPIRPEVKAAGDMLGISPYDVANEGKVIMVVDREYAEDALEAMRKTEKGKDAAIIGEIIKDYPGKVILETGIGGRRFLEPPIGDPVPRVC” the “soluble on expression in E. coli” value was “soluble”.
For “MGSDKIHHHHHHMFKNVSWKLKEHSELKKYGIDHNILLDVVSRERRKIYFDYWKNLPKLVTSSLGLKFTDGTPVDALYEVFIEGIYDVDGFRPKMGDVVVDVGANYGDSSIWWAKKKFGAKVIAFEPLADVFHELEKNIRINHADVIAYNVALGNGNFINGSKQGNMFVAGGQAKIQTSRLDDYTFDRLDLLKIDVEGFEHDVLLGARSTISKFKPKIIIETHSVALRKLCHEFLISLGYSLSLEGRTIRAHSPGMDKVTNLFYSPII”, the “soluble on expression in E. coli” value was “not soluble”.
In the case of “MTITDKNRLTGEADPRRTSLYGPPSMDALTERALHLARAGRALLGIVGEPGAGKSTFAEQLRARLEKERPGLAVTVSMDGFHLAQKVIEARGQAADKGTIDTFDADGFVALLRRTRAETGDTENTESTVWWPEFDRDLEDPVAGSIEVAPHHRLVIVDGNFLLSAQEPWRQVKGLLDETWFLDALPEPRRERLTRRYISYGFTPEAARAKTLGVDEDTSALIRSTVSRADLVIGEARESGGVSDC”, the “soluble on expression in E. coli” value was “not soluble”.
With “GPGSMNPLSTRRLGGTVTPGSALSGTCYVSHITRPARTMCWMKLAVFTQFPVVPSLAGTQVQGRQDLLASTAGAGTPEEASLFLQIELFDDECPQLCANFRRLCNGQSSTRQGQVYCFQGLTPSYCGTYFHKIIPSYCVQGGDITMRVKPGGTNSYSSAGRTWLPDEFKKRRHNEIGLVSMANNGPNSNGSQFFITTSAAHERAFNGRHCCIGHVVRGLDAFIALVAPFGNIEGHPSKYAVVVDCGEGEAPTLMSASSSPAAVFQASMAISETGTAGSSPAADSRSVSVEEAPAELDAHYCEQPPQLQLQHRQAADGTGVMAALSPSDAAAAAAPLSISPAQPLKSSLKEKTTAVSEAAKTHAKHVTYQL” the “soluble on expression in E. coli” value was “not soluble”.
With “RPDPQEIEAQRKAAIEAARQDSIAKAEAELLAARTQGATPDSIKQAAGYNQYGLLAAATAGAEEQVELANGKIALKLSTKGGAIREVLLRDYKTHDGKPLYLFREGESDFNLPLRTVDNRLVDTRDLYFSPISRTDSSVVMRLAVDSASYLDLAYVLLPDDYRLRMTVSGQNLQSLFPANMTMQDLEWSQRIRRQEKSWKFENQYTSIYYKYSGDEVDRLSDSKQEDKKTLEEPLHWVSFKDKYFASVLVCDSYFENNKLAQKTAAAGSDYLKNCTMSATFPLDVRSGTKARFTFFFGPLKYNMLRAYDKGMKAEDNLDLDHLVYLGASIFRWINRYMIIPASTFLQQYFSN” the “soluble on expression in E. coli” value was “not soluble”.
